T1: Lys-plasminogen, P00747
T1 chain: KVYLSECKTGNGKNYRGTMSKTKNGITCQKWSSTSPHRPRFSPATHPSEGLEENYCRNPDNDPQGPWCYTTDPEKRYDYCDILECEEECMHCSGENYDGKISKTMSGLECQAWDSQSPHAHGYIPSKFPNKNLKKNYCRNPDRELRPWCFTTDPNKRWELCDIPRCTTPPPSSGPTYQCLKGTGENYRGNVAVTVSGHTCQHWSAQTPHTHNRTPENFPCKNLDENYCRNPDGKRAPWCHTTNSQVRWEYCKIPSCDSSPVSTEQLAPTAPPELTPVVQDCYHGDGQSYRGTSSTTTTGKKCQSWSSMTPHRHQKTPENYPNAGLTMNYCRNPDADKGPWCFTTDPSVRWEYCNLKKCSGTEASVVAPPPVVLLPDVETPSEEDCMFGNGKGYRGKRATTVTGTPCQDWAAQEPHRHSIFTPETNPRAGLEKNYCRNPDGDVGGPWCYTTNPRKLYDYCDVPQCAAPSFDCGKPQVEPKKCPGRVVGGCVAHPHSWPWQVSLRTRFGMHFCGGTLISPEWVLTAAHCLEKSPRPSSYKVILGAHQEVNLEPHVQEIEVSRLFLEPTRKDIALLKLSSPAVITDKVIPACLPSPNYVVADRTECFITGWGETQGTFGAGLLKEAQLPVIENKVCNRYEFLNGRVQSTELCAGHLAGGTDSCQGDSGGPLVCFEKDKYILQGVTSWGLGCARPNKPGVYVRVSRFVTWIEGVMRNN

B1: tissue-type plasminogen activator (t-PA) (protein)
chain: SYQVICRDEKTQMIYQQHQSWLRPVLRSNRVEYCWCNSGRAQCHSVPVKSCSEPRCFNGGTCQQALYFSDFVCQCPEGFAGKCCEIDTRATCYEDQGISYRGTWSTAESGAECTNWNSSALAQKPYSGRRPDAIRLGLGNHNYCRNPDRDSKPWCYVFKAGKYSSEFCSTPACSEGNSDCYFGNGSAYRGTHSLTESGASCLPWNSMILIGKVYTAQNPSAQALGLGKHNYCRNPDGDAKPWCHVLKNRRLTWEYCDVPSCSTCGLRQYSQPQFRIKGGLFADIASHPWQAAIFAKHRRSPGERFLCGGILISSCWILSAAHCFQERFPPHHLTVILGRTYRVVPGEEEQKFEVEKYIVHKEFDDDTYDNDIALLQLKSDSSRCAQESSVVRTVCLPPADLQLPDWTECELSGYGKHEALSPFYSERLKEAHVRLYPSSRCTSQHLLNRTVTDNMLCAGDTRSGGPQANLHDACQGDSGGPLVCLNDGRMTLVGIISWGLGCGQKDVPGVYTKVTNYLDWIRDNMRP
B2: soluble form of hepsin encompassing the entire extracellular domain (Arg45-Leu417) and a C-terminal His8 tag (protein)
chain 1: RSDQEPLYPVQVSSADARLMVFDKTEGTWRLLCSSRSNARVAGLSCEEMGFLRALTHSELDVRTAGANGTSGFFCVDEGRLPHTQRLLEVISVCDCPRGRFLAAICQDCGRRKLPVDR
chain 2: not shown

Legend:
Lys-plasminogen, P00747 = molecular target: T1, Lys-plasminogen, P00747
[1] = molecular target: pro-HGF (single-chain hepatocyte growth factor), P14210
Sequence of pro-HGF (single-chain hepatocyte growth factor), P14210 (P14210 32-728): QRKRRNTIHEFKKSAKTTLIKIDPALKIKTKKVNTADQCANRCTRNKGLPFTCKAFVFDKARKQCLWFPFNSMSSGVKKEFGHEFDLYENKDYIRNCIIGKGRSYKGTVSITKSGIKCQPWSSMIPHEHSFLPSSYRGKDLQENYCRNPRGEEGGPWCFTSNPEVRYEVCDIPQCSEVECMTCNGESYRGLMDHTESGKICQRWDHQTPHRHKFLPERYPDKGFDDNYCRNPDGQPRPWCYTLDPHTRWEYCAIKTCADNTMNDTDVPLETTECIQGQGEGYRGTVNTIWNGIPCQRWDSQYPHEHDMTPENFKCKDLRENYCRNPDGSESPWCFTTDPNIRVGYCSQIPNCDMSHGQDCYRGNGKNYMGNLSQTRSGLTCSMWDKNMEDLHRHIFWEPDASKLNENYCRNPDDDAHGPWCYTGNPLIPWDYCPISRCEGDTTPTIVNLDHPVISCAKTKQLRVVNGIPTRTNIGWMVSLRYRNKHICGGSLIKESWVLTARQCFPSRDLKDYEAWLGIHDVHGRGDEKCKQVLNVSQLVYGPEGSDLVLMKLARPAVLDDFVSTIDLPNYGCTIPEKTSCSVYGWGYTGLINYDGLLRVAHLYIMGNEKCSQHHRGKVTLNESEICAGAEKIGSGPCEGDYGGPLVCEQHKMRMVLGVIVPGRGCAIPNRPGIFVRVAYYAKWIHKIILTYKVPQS

Protein	percent of plasminogen zymogen cleaved after 0.5 h (40 nM t-PA, SDS-PAGE) (Lys-plasminogen, P00747)	enzyme concentration achieving complete conversion of 125I-labelled pro-HGF into two-chain HGF (4 h, 37° C., SDS-PAGE) [1]
B1	t-PA efficiently processed plasminogen with about 50% of zymogen already cleaved after 0.5 h	
VQLSPDLLATLPEPASPGRQACGRRHKKRTFLRPR [HGFA (hepatocyte growth factor activator) comprising residues Val373-Arg407]		both enzymes achieving complete conversion of pro-HGF at a concentration of 4-13 nM
B2		both enzymes achieving complete conversion of pro-HGF at a concentration of 4-13 nM
